Experimental findings from IntAct's records for PubMed 16254079 are described below.

First the molecules themselves.
B1: Proliferation-associated protein 2G4 (Homo sapiens), Q9UQ80 (parent)
chain: MSGEDEQQEQTIAEDLVVTKYKMGGDIANRVLRSLVEASSSGVSVLSLCEKGDAMIMEETGKIFKKEKEMKKGIAFPTSISVNNCVCHFSPLKSDQDYILKEGDLVKIDLGVHVDGFIANVAHTFVVDVAQGTQVTGRKADVIKAAHLCAEAALRLVKPGNQNTQVTEAWNKVAHSFNCTPIEGMLSHQLKQHVIDGEKTIIQNPTDQQKKDHEKAEFEVHEVYAVDVLVSSGEGKAKDAGQRTTIYKRDPSKQYGLKMKTSRAFFSEVERRFDAMPFTLRAFEDEKKARMGVVECAKHELLQPFNVLYEKEGEFVAQFKFTVLLMPNGPMRITSGPFEPDLYKSEMEVQDAELKALLQSSASRKTQKKKKKKASKTAENATSGETLEENEAGD
partner: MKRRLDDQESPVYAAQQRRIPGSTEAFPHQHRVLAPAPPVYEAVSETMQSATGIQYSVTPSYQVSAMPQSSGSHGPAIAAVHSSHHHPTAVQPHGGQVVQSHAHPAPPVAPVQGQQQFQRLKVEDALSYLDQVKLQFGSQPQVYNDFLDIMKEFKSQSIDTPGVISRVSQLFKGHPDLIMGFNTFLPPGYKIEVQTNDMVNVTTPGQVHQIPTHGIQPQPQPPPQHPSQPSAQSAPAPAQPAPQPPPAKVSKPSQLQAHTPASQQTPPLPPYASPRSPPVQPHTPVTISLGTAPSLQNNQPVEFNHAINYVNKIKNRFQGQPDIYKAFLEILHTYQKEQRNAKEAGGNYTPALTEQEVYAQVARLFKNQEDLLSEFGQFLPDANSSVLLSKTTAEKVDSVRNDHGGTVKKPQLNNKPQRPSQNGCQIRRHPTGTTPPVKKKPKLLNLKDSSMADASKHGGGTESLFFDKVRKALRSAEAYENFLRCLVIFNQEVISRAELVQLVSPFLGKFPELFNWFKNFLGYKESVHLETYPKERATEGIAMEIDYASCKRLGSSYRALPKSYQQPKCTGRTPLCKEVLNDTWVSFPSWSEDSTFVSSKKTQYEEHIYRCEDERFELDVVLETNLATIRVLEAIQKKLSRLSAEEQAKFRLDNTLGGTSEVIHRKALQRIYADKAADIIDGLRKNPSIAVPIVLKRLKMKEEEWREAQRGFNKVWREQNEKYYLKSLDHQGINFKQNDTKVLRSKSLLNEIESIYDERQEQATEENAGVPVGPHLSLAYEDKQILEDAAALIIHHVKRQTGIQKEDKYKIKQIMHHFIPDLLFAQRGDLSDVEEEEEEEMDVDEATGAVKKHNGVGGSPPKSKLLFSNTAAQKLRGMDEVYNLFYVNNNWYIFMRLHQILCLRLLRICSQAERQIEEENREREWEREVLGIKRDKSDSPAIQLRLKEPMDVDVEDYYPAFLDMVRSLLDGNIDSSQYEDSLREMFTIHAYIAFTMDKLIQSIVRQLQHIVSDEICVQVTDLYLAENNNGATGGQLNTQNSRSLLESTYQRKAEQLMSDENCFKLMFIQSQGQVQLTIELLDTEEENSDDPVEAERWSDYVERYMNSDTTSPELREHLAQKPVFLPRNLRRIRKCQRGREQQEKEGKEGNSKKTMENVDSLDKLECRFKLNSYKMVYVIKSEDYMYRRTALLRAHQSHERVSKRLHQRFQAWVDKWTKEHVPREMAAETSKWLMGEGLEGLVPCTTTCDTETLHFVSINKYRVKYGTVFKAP

In the test the parent is B1. The following applies: with sin3a_human SIN3A.
In the case of MSGEDEQQEQTIAEDLVVTKYKMGGDIANRVLRSLVEASSSGVSVLSLCEKGDAMIMEETGKIFKKEKEMKKGIAFPTSISVNNCVCHFSPLKSDQDYILKEGDLVKIDLGVHVDGFIANVAHTFVVDVAQGTQVTGRKADVIKAAHLCAEAALRLVKPGNQNTQVTEAWNKVAHSFNCTPIEGMLSHQLKQHVIDGEKTIIQNPTDQQKKDHEKAEFEVHEVYAVDVLVSSGEGKAKDAGQRTTIYKRDPSKQYGLKMKTSRAFFSEVERRFDAMPFTLRAFEDEKKARMGVVECAKHELLQPFNVLYEKEGEFVAQFKFTVLLMPNGPMRITSGPFEPDLYKSEMEVQDAELKAAAQSSASRKTQKKKKKKASKTAENATSGETLEENEAGD [L357A;L358A], the “effect of a mutation on the interaction” value is reported as “disrupting interaction”.
